Measurements published in patent publication US20200397816A1, “METHODS TO TREAT INFLAMMATORY AND SMOOTH MUSCLE CELL PROLIFERATION DISORDERS” (THE TRUSTEES OF INDIANA UNIVERSITY, priority 2019, published 2020).
Entries after “also recorded” stand apart in the source; their conditions may differ.

Tests used:
S1P [1] = assay: Lung tissue S1P by HPLC/MS/MS in neonatal mice; type: in vivo, mouse; settings: neonatal C57BL/6 mice; recombinant EMAP II subQ days of life 3-15; postnatal day 15 lungs
Method: Animal experimental procedure was performed in accordance with the guidelines issued by the University of Notre Dame/Indiana University Institutional Animal and Use Committee. Lung tissues were harvested from postnatal day 15 C57BL/6 mice (Jackson laboratories) that were injected with either EMAP II or PBS at Day 3. Total protein was extracted and quantified. 1 mg of total protein was subjected to S1P quantification by HPLC/MS/MS.
Collected cells were rinsed with PBS, pelleted. Cell pellets and 1 mg of protein tissue extracts were frozen at −80° C. Sphingolipids extraction and analysis was carried out at the Medical University of South Carolina (MUSC) core facility using eight-point calibration curves generated for each target analyte by High Performance Liquid Chromatography-Tandem Mass Spectrometry (HPLC/MS/MS) system operating in positive multiple reaction-monitoring (MRM) mode engaging a gradient elution. Sphingolipids were normalized to inorganic phosphate levels in PASMC which was determined from the Bligh & Dyer lipid extraction method. Biological samples were from different passages collected on different days.

pERK1/2 = pERK1/2 western blot time course in hPASMC; type: cell-based, human; settings: SMCs
Method: (§1) RAW 264.7 (ATCC) mouse macrophages and Human Embryonic Kidney (HEK) 293T cells were cultured in DMEM media with 10% fetal bovine serum […] and glutamine HEPES buffer and beta-mercaptoethanol were added to the growth medium used for RAW 264.7 macrophages. Primary human pulmonary artery smooth muscle cells (hPASMC) purchased from Lonza (Walkersville, Md.) were cultured in complete growth medium containing smooth muscle growth media-2 (SmGM-2) with 10% FBS and growth factors provided as a kit by the supplier (Lonza, (Walkersville, Md.). THP-1 human monocyte cells were cultured in RPMI 1640 with 10% FBS and glutamine Cells were cultured in a humidified atmosphere with 5% CO2 at 370 C. For all studies passages 5-14 were used for RAW 264.7 and passages 5-10 were used for hPASMCs. For treatment studies, subconfluent cells plated in multi-well plates were serum starved and if required, pretreated for with inhibitors before stimulating with 2 μg/mL recombinant EMAP II.
After appropriate treatments, protein lysates were prepared by using RIPA buffer supplemented with phosphatase and protease inhibitors (Thermo Fischer Scientific). Alpha-tubulin was used as a loading control. For nuclear and cytoplasmic fractionation, NE-PER kit from Thermo Fischer Scientific was used. Western blots were performed according to standard methods and quantified using densitometry using Image Studio Lite software from LI-COR Biosciences.
(§2) RAW 264.7 (ATCC) mouse macrophages and HEK-293T (ATCC) cells were cultured in DMEM media with 10% (v/v) fetal bovine serum (FBS) and 2 mM glutamine HEPES buffer and beta-mercaptoethanol were added to the growth medium used for RAW 264.7 macrophages. […]
After appropriate treatments, protein lysates were prepared by using RIPA buffer supplemented with phosphatase and protease inhibitors (Thermo Fisher Scientific). […] Western blots were performed according to standard methods and quantified using densitometry using Image Studio Lite software from LI-COR Biosciences.

pSphK1 (Ser225) = pSphK1 (Ser225) immunoblotting and immunofluorescence in hPASMC; type: cell-based, human; settings: SMCs
Method: RAW 264.7 (ATCC) mouse macrophages and Human Embryonic Kidney (HEK) 293T cells were cultured in DMEM media with 10% fetal bovine serum […] and glutamine HEPES buffer and beta-mercaptoethanol were added to the growth medium used for RAW 264.7 macrophages. […]
After appropriate treatments, protein lysates were prepared by using RIPA buffer supplemented with phosphatase and protease inhibitors (Thermo Fischer Scientific). […] Western blots were performed according to standard methods and quantified using densitometry using Image Studio Lite software from LI-COR Biosciences. […]
After appropriate treatments, protein lysates were prepared by using RIPA buffer supplemented with phosphatase and protease inhibitors (Thermo Fisher Scientific). […] Western blots were performed according to standard methods and quantified using densitometry using Image Studio Lite software from LI-COR Biosciences. […]

S1P [2] = assay: S1P, sphingosine and ceramides by HPLC/MS/MS in hPASMC; type: cell-based, human
Method: as §1
Collected cells were rinsed with PBS, pelleted and frozen at minus 80° Celsius. Sphingolipids extraction and analysis is carried out at the Medical University of South Carolina (MUSC) core facility using eight-point calibration curves generated for each target analyte by High Performance Liquid Chromatography-Tandem Mass Spectrometry (HPLC/MS/MS) system operating in positive multiple reaction-monitoring (MRM) mode engaging a gradient elution. Sphingolipids are normalized to inorganic phosphate levels determined from the Bligh & Dyer lipid extraction method. Biological samples were from different passage numbers and on different days.
as §2
Collected cells were rinsed with PBS, pelleted. […] Sphingolipids were normalized to inorganic phosphate levels in PASMC which was determined from the Bligh & Dyer lipid extraction method. […]

S1P [3] = assay: ELISA for S1P quantification in hPASMC; type: cell-based, human; settings: SMCs; peaks at 1 hour and 6 hour; normalized against protein
Method: Equal number of hPASMC cells (1,000,000) were plated and serum starved for overnight. Cells were stimulated for in a series of time points and collected the cells. Cells were pelleted out and washed with PBS. After the lysis protein concentration was measured. S1P levels were measured using S1P ELISA kit (MyBioSource, MBS069092) following manufacturer's instructions. S1P levels were normalized against protein levels.

B1: EMAP II: 6x-His tagged recombinant EMAP II, cleaved C-terminal peptide of AIMP1 (SEQ ID NO: 2), pro-inflammatory cytokine (protein)
chain: IAGSADSKPIDVSRLDLRIGCIITARKHPDADSLYVEEVDVGEIAPRTVVSGLVNHVPLEQMQNRMVILLCNLKPAKMRGVLSQAMVMCASSPEKIEILAPPNGSVPGDRITFDAFPGEPDKELNPKKKIWEQIQPDLHTNDECVATYKGVPFEVKGKGVCRAQTMSNSGIK
S1P [1]
  whole lung S1P levels compared to control: significantly increased; also recorded: significant increase
pERK1/2
  earliest time pERK1/2 reached significance: 3 minutes
  time of pERK1/2 peak: 3 minutes
pERK1/2; 24-hour time course
  ERK1/2 phosphorylation (pERK1/2): bi-modal ERK1/2 activation; also recorded: induced pERK1/2
pSphK1 (Ser225); immunostaining pSphK1 and actin, 15 minutes, 1 hour, 6 hours EMAP II
  pSphK1 localization to the plasma membrane: stimulated translocation; also recorded: trafficked to the plasma membrane; also recorded: increased pSPHK1 signal
pSphK1 (Ser225); peaks at 1 and 6 hours of EMAP II
  SphK1 phosphorylation (pSphK1/Tubulin): bi-modal SphK1 phosphorylation; also recorded: bimodal SPHK1 phosphorylation
S1P [2]; SMCs growth media, 1 hour of EMAP II
  extracellular S1P compared to control: elevation; also recorded: elevated
S1P [2]; SMCs, EMAP II 0-24 hours
  cellular sphingosine and ceramide levels: depreciation throughout the time; also recorded: decreasing levels over time
S1P [2]; SMCs, EMAP II 0-24 hours, normalized against inorganic phosphates
  cellular S1P levels (HPLC/MS/MS): bi-modal elevation
S1P [3]
  intracellular S1P levels (ELISA): significant bimodal pattern
